Assay results: paper doi:10.1101/373860 (bioRxiv, 2018)

Molecular target: the molecule itself
Assay: cryo-EM structure

B1: Arabidopsis thaliana two-pore channel 1 with D240N, D454N, E528Q (AtTPC1DDE), deletion of residues 2-11 (natural protein, UniProt Q94KI8 1-733, looked up)
chain: MGGGGTDRVRRSEAITHGTPFQKAAALVDLAEDGIGLPVEILDQSSFGESARYYFIFTRLDLIWSLNYFALLFLNFFEQPLWCEKNPKPSCKDRDYYYLGELPYLTNAESIIYEVITLAILLVHTFFPISYEGSRIFWTSRLNLVKVACVVILFVDVLVDFLYLSPLAFDFLPFRIAPYVRVIIFILSIRELRDTLVLLSGMLGTYLNILALWMLFLLFASWIAFVMFENTQQGLTVFTSYGATLYQMFILFTTSNNPDVWIPAYKSSRWSSVFFVLYVLIGVYFVTNLILAVVYDSFKEQLAKQVSGMDQMKRRMLEKAFGLIDSDKNGEIDKNQCIKLFEQLTNYRTLPKISKEEFGLIFDELDDTRDFKINKDEFADLCQAIALRFQKEEVPSLFEHFPQIYHSALSQQLRAFVRSPNFGYAISFILIINFIAVVVETTLNIEESSAQKPWQVAEFVFGWIYVLEMALKIYTYGFENYWREGANRFDFLVTWVIVIGETATFITPDENTFFSNGQWIRYLLLARMLRLIRLLMNVQRYRAFIATFITLIPSLMPYLGTIFCVLCIYCSIGVQVFGGLVNAGNKKLFETELAEDDYLLFNFNDYPNGMVTLFNLLVMGNWQVWMESYKDLTGTWWSITYFVSFYVITILLLLNLVVAFVLEAFFTELDLEEEEKCQGQDSQEKRNRRRSAGSKSRSQRVDTLLHHMLGDELSKPECSTSDT
- stoichiometry N: 2
